Data from paper PMC9293771.

Target: N-terminally truncated N-terminally His6-tagged human aspartate/asparagine-β-hydroxylase (His6-AspH315–758) (human) (UniProt Q12797)
UniProt Q12797, sequence (Q12797 315-758): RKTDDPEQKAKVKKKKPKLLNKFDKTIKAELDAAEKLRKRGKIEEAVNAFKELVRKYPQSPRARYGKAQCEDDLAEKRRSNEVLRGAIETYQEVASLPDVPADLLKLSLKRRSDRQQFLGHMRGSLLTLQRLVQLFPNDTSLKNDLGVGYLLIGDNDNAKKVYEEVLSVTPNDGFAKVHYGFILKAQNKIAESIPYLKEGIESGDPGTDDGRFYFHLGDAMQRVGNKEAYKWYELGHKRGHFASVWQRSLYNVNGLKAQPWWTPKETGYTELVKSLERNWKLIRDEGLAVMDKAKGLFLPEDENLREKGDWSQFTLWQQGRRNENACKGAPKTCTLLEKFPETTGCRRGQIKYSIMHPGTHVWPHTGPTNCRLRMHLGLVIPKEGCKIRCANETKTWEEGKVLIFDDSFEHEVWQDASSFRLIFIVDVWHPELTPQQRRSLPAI

Row | Substance | Km of AspH for the peptide substrate, steady-state kinetics of hydroxylation by SPE-MS (0.1 μM His6-AspH315–758, 50 mM Hepes, pH 7.5, 20 °C)
1 | hHMCN1-CP5164–5182, thioether-bridged cyclic peptide derived from EGFD2 of human hemicentin-1 (from UniProt Q96RW7 5164-5182) | 7.9 μM
2 | hLYPD6B-CP65–83, thioether-bridged cyclic peptide derived from the LU domain of human LYPD6B (from UniProt Q8NI32 65-83) | 47 μM
